This is an account of results in patent publication US20120100159A1 (Genentech, published 2012).

Test [1] concerns the target T1, recombinant gD:human TAT226 fusion protein expressed on HCT116#9-4 cells (herpes simplex virus type 1; human, UniProt Q8N2G4 23-141).
T1 sequence: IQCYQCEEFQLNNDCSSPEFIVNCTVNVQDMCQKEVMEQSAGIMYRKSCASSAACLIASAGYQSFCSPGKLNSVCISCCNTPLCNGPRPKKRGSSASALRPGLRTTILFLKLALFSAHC
Description: cell-based or functional assay.

Test [2] deals with T2, human TAT226 expressed on the surface of OVCAR3 cells (human, UniProt Q8N2G4 21-117).
T2 sequence: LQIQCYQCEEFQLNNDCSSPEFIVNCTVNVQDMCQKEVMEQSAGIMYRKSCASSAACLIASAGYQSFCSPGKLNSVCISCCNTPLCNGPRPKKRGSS
Description: cell-based or functional assay.

Test [3] addresses T3, recombinant TAT226-His fusion protein (human, UniProt Q8N2G4 21-115).
T3 construct: also called recombinant antigen; not shown: C-terminal polyhistidine tag
T3 sequence: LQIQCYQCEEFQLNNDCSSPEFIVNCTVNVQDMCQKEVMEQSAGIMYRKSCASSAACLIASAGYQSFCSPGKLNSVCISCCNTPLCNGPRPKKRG
Description: SPR, BIACORE 3000, IgG immobilised on CM5 chip, TAT226-His injected (0.7-500 nM), 25 C. Here is the method:
The binding affinity of YWO.49, YWO.49.B7, YWO.49.C9, YWO.49.H2, and YWO.49.H6 for recombinant antigen was determined by surface plasmon resonance measurement using a BIACORE® 3000 system (Biacore, Inc., Piscataway, N.J.). Briefly, carboxymethylated dextran biosensor chips (CM5, Biacore Inc.) were activated with N-ethyl-N′-(3-dimethylaminopropyl)-carbodiimide hydrochloride (EDC) and N-hydroxysuccinimide (NHS) according to the supplier's instructions. Anti-TAT226 antibody was diluted to 5 ug/ml with 10 mM sodium acetate, pH 4.8, before injection at a flow rate of 5 μl/minute to achieve approximately 500 response units (RU) of coupled antibody. Next, 1M ethanolamine was injected to block unreacted groups. For kinetics measurements, two-fold serial dilutions of TAT226-His (0.7 nM to 500 nM) were injected in PBS with 0.05% Tween 20 at 25° C. at a flow rate of 25 μl/min Association rates (kₒₙ) and dissociation rates (koff) were calculated using a simple one-to-one Langmuir binding model (BIAevaluation Software version 3.2). The equilibrium dissociation constant (Kd) was calculated as the ratio koff/kₒₙ.

The target in test [4] is T2, human TAT226 expressed on the surface …. Kind of test: competition of iodinated antibody with unlabeled antibody on OVCAR3 cells, Scatchard analysis. How it is done:
The binding affinity of YWO.49.H2 and YWO.49.H6 for TAT226 expressed on the surface of OVCAR3 cells was examined using a competition assay. Briefly, labeled (iodinated) YWO.49.H2 or YWO.49.H6 was allowed to bind to OVCAR3 cells in the presence of unlabeled antibody. Binding affinity of the antibodies was determined in accordance with the Scatchard analysis methodology initially described in Munson et al., Anal. Biochem. 107:220 (1980).

Where a chain is given by its changes, count along the chain named.

B1: YWO.49.H2-MC-vc-PAB-MMAF (antibody, V domains shown)
VH: EVQLVESGGGLVQPGGSLRLSCAASGFTITNYGIHWVRQAPGKGLEWVGRIYPDSGATYYADSVKGRFTISADTSKNTAYLQMNSLRAEDTAVYYCARKLWVSLAPMDYWGQGTLVTVSS
VL: DIQMTQSPSSLSASVGDRVTITCRASQDVSTAVAWYQQKPGKAPKLLIYSASFLYSGVPSRFSGSGSGTDFTLTISSLQPEDFATYYCQQSYGTPFIFGQGTKVEIKR
modifications: MC-vc-PAB-MMAF conjugated to cysteine residues of the partially reduced antibody; average drug load 4.7 per antibody
Take B1: the “IC50, in vitro cell killing assay on HCT116#9-4 transfectants (CellTiter-Glo, 3 days)” value in test [1] is around 0.05 nM. Besides, the “IC50, OVCAR3 in vitro cell killing assay (CellTiter-Glo, 5 days)” value (from here on “IC50, OVCAR3 in vitro cell killing assay”) in test [2] was around 0.005 nM.

B2: YWO.49.H6-MC-vc-PAB-MMAF (antibody, V domains shown)
VH: B1 VH with V102I, L104I, P106G
VL: B1 VL with Q90H, G93A, I97T
modifications: MC-vc-PAB-MMAF conjugated to cysteine residues of the partially reduced antibody; average drug load 4.4 per antibody
With B2, the “IC50, in vitro cell killing assay on HCT116#9-4 transfectants (CellTiter-Glo, 3 days)” value in test [1] was around 0.05 nM. Besides, the “IC50, OVCAR3 in vitro cell killing assay” value in test [2] was around 0.005 nM.

B3: YWO.49.H2-MC-vc-PAB-MMAE (antibody, V domains shown)
VH: B1 VH
VL: B1 VL
modifications: MC-vc-PAB-MMAE conjugated to cysteine residues of the partially reduced antibody; average drug load 3.8 per antibody
As for B3, the “IC50, OVCAR3 in vitro cell killing assay” value in test [2] is around 0.2 nM.

B4: YWO.49.H6-MC-vc-PAB-MMAE (antibody, V domains shown)
VH: B1 VH with V102I, L104I, P106G
VL: B1 VL with Q90H, G93A, I97T
modifications: MC-vc-PAB-MMAE conjugated to cysteine residues of the partially reduced antibody; average drug load 4.4 per antibody
Regarding B4, the “IC50, OVCAR3 in vitro cell killing assay” value in test [2] is around 0.2 nM.

B5: YWO.49 (antibody, V domains shown)
VH: B1 VH with L104R, P106G
VL: B1 VL with G93T, F96P, I97T
notes: detected with anti-human IgG; also called anti-TAT226 monoclonal antibody YWO.49
Turning to B5, the dissociation constant Kd in test [3] is 47.2 nM.

B6: YWO.49.H6 (antibody, V domains shown)
VH: B1 VH with V102I, L104I, P106G
VL: B1 VL with Q90H, G93A, I97T
notes: also called YWO.H6
On to B6, for which the results for the Kd in test [4] and in test [3] were 0.404 nM and 0.05 nM, respectively.

B7: YWO.49.H2 (antibody, V domains shown)
VH: B1 VH
VL: B1 VL
In the case of B7, the dissociation constant Kd in test [4] came to 0.348 nM; in test [3], 0.23 nM.

B8: YWO.49.C9 (antibody, V domains shown)
VH: B1 VH with S103T, P106S
VL: B1 VL with Q90K, G93N, F96P, I97T
With B8, the equilibrium dissociation constant (Kd) in test [3] was below 0.03 nM.

B9: YWO.49.B7 (antibody, V domains shown)
VH: B1 VH with P106A
VL: B1 VL with Q90R, Y92V, G93F, F96P, I97A
Turning to B9, the Kd in test [3] is below 0.18 nM.

One may read the Kd as the constant that tells how readily two partners part at equilibrium.
